For 13 molecules, percent of parent (% of wild-type intensity) results are on record in paper PMC3393671.

This assay addresses ROP5 of T. gondii strain RH-YFP (isoforms not told apart), F2YGR7. In words: pull-down (quantitated Western blot). To be noted: chain shown with the change; 25 µg protein/100 µl 1:1 bead suspension; RH-YFP strain T. gondii lysates; 3E2 antibody (anti-ROP5); GST signal subtracted; parent: est. 100; read off a plot. Background: In western blotting, separated proteins are transferred to a membrane and probed.

Sequence of ROP5 of T. gondii strain RH-YFP (isoforms not told apart), F2YGR7 (F2YGR7 25-549): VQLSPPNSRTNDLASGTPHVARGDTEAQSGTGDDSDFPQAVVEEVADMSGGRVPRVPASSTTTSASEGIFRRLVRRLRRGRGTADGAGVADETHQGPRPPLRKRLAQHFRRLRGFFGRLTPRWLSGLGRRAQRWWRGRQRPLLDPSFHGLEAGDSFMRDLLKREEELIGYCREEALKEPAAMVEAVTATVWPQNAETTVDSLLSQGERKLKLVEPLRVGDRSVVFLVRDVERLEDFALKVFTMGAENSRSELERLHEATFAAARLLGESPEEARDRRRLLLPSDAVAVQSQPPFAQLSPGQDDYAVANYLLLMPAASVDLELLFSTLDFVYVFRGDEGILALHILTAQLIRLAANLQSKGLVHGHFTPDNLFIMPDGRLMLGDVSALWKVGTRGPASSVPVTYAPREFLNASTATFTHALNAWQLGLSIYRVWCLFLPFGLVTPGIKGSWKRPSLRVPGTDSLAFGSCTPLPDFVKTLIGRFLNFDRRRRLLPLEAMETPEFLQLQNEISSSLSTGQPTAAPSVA

B1: GST-Irga6, Q9QZ85 E110R; R111E (protein)
chain: MGQLFSSPKSDENNDLPSSFTGYFKKFNTGRKIISQEILNLIELRMRKGNIQLTNSAISDALKEIDSSVLNVAVTGETGSGKSSFINTLRGIGNEEEGAAKTGVVEVTMREHPYKHPNIPNVVFWDLPGIGSTNFPPNTYLEKMKFYEYDFFIIISATRFKKNDIDIAKAISMMKKEFYFVRTKVDSDITNEADGKPQTFDKEKVLQDIRLNCVNTFRENGIAEPPIFLLSNKNVCHYDFPVLMDKLISDLPIYKRHNFMVSLPNITDSVIEKKRQFLKQRIWLEGFAADLVNIIPSLTFLLDSDLETLKKSMKFYRTVFGVDETSLQRLARDWEIEVDQVEAMIKSPAVFKPTDEETIQERLSRYIQEFCLANGYLLPKNSFLKEIFYLKYYFLDMVTEDAKTLLKEICL
Turning to B1, the percent of parent (% of wild-type intensity) was 17.

B2: GST-Irga6, Q9QZ85 R159E (protein)
chain: MGQLFSSPKSDENNDLPSSFTGYFKKFNTGRKIISQEILNLIELRMRKGNIQLTNSAISDALKEIDSSVLNVAVTGETGSGKSSFINTLRGIGNEEEGAAKTGVVEVTMERHPYKHPNIPNVVFWDLPGIGSTNFPPNTYLEKMKFYEYDFFIIISATEFKKNDIDIAKAISMMKKEFYFVRTKVDSDITNEADGKPQTFDKEKVLQDIRLNCVNTFRENGIAEPPIFLLSNKNVCHYDFPVLMDKLISDLPIYKRHNFMVSLPNITDSVIEKKRQFLKQRIWLEGFAADLVNIIPSLTFLLDSDLETLKKSMKFYRTVFGVDETSLQRLARDWEIEVDQVEAMIKSPAVFKPTDEETIQERLSRYIQEFCLANGYLLPKNSFLKEIFYLKYYFLDMVTEDAKTLLKEICL
Take B2: the percent of parent (% of wild-type intensity) was determined as 5.5.

B3: GST-Irga6, Q9QZ85 M173W (protein)
chain: MGQLFSSPKSDENNDLPSSFTGYFKKFNTGRKIISQEILNLIELRMRKGNIQLTNSAISDALKEIDSSVLNVAVTGETGSGKSSFINTLRGIGNEEEGAAKTGVVEVTMERHPYKHPNIPNVVFWDLPGIGSTNFPPNTYLEKMKFYEYDFFIIISATRFKKNDIDIAKAISWMKKEFYFVRTKVDSDITNEADGKPQTFDKEKVLQDIRLNCVNTFRENGIAEPPIFLLSNKNVCHYDFPVLMDKLISDLPIYKRHNFMVSLPNITDSVIEKKRQFLKQRIWLEGFAADLVNIIPSLTFLLDSDLETLKKSMKFYRTVFGVDETSLQRLARDWEIEVDQVEAMIKSPAVFKPTDEETIQERLSRYIQEFCLANGYLLPKNSFLKEIFYLKYYFLDMVTEDAKTLLKEICL
Consider B3, for which the percent of parent (% of wild-type intensity) is 25.

B4: GST-Irga6, Q9QZ85 S132R (protein)
chain: MGQLFSSPKSDENNDLPSSFTGYFKKFNTGRKIISQEILNLIELRMRKGNIQLTNSAISDALKEIDSSVLNVAVTGETGSGKSSFINTLRGIGNEEEGAAKTGVVEVTMERHPYKHPNIPNVVFWDLPGIGRTNFPPNTYLEKMKFYEYDFFIIISATRFKKNDIDIAKAISMMKKEFYFVRTKVDSDITNEADGKPQTFDKEKVLQDIRLNCVNTFRENGIAEPPIFLLSNKNVCHYDFPVLMDKLISDLPIYKRHNFMVSLPNITDSVIEKKRQFLKQRIWLEGFAADLVNIIPSLTFLLDSDLETLKKSMKFYRTVFGVDETSLQRLARDWEIEVDQVEAMIKSPAVFKPTDEETIQERLSRYIQEFCLANGYLLPKNSFLKEIFYLKYYFLDMVTEDAKTLLKEICL
With B4, the percent of parent (% of wild-type intensity) was found to be 45.

B5: GST-Irga6, Q9QZ85 K161E (protein)
chain: MGQLFSSPKSDENNDLPSSFTGYFKKFNTGRKIISQEILNLIELRMRKGNIQLTNSAISDALKEIDSSVLNVAVTGETGSGKSSFINTLRGIGNEEEGAAKTGVVEVTMERHPYKHPNIPNVVFWDLPGIGSTNFPPNTYLEKMKFYEYDFFIIISATRFEKNDIDIAKAISMMKKEFYFVRTKVDSDITNEADGKPQTFDKEKVLQDIRLNCVNTFRENGIAEPPIFLLSNKNVCHYDFPVLMDKLISDLPIYKRHNFMVSLPNITDSVIEKKRQFLKQRIWLEGFAADLVNIIPSLTFLLDSDLETLKKSMKFYRTVFGVDETSLQRLARDWEIEVDQVEAMIKSPAVFKPTDEETIQERLSRYIQEFCLANGYLLPKNSFLKEIFYLKYYFLDMVTEDAKTLLKEICL
As to B5, the percent of parent (% of wild-type intensity) was 1.

B6: GST-Irga6, Q9QZ85 T88R (protein)
chain: MGQLFSSPKSDENNDLPSSFTGYFKKFNTGRKIISQEILNLIELRMRKGNIQLTNSAISDALKEIDSSVLNVAVTGETGSGKSSFINRLRGIGNEEEGAAKTGVVEVTMERHPYKHPNIPNVVFWDLPGIGSTNFPPNTYLEKMKFYEYDFFIIISATRFKKNDIDIAKAISMMKKEFYFVRTKVDSDITNEADGKPQTFDKEKVLQDIRLNCVNTFRENGIAEPPIFLLSNKNVCHYDFPVLMDKLISDLPIYKRHNFMVSLPNITDSVIEKKRQFLKQRIWLEGFAADLVNIIPSLTFLLDSDLETLKKSMKFYRTVFGVDETSLQRLARDWEIEVDQVEAMIKSPAVFKPTDEETIQERLSRYIQEFCLANGYLLPKNSFLKEIFYLKYYFLDMVTEDAKTLLKEICL
B6: the percent of parent (% of wild-type intensity) amounted to 51.

B7: GST-Irga6, Q9QZ85 E106R (protein)
chain: MGQLFSSPKSDENNDLPSSFTGYFKKFNTGRKIISQEILNLIELRMRKGNIQLTNSAISDALKEIDSSVLNVAVTGETGSGKSSFINTLRGIGNEEEGAAKTGVVRVTMERHPYKHPNIPNVVFWDLPGIGSTNFPPNTYLEKMKFYEYDFFIIISATRFKKNDIDIAKAISMMKKEFYFVRTKVDSDITNEADGKPQTFDKEKVLQDIRLNCVNTFRENGIAEPPIFLLSNKNVCHYDFPVLMDKLISDLPIYKRHNFMVSLPNITDSVIEKKRQFLKQRIWLEGFAADLVNIIPSLTFLLDSDLETLKKSMKFYRTVFGVDETSLQRLARDWEIEVDQVEAMIKSPAVFKPTDEETIQERLSRYIQEFCLANGYLLPKNSFLKEIFYLKYYFLDMVTEDAKTLLKEICL
Turning to B7, the percent of parent (% of wild-type intensity) amounted to 110.

B8: GST-Irga6, Q9QZ85 K145E (protein)
chain: MGQLFSSPKSDENNDLPSSFTGYFKKFNTGRKIISQEILNLIELRMRKGNIQLTNSAISDALKEIDSSVLNVAVTGETGSGKSSFINTLRGIGNEEEGAAKTGVVEVTMERHPYKHPNIPNVVFWDLPGIGSTNFPPNTYLEKMEFYEYDFFIIISATRFKKNDIDIAKAISMMKKEFYFVRTKVDSDITNEADGKPQTFDKEKVLQDIRLNCVNTFRENGIAEPPIFLLSNKNVCHYDFPVLMDKLISDLPIYKRHNFMVSLPNITDSVIEKKRQFLKQRIWLEGFAADLVNIIPSLTFLLDSDLETLKKSMKFYRTVFGVDETSLQRLARDWEIEVDQVEAMIKSPAVFKPTDEETIQERLSRYIQEFCLANGYLLPKNSFLKEIFYLKYYFLDMVTEDAKTLLKEICL
On to B8, for which the percent of parent (% of wild-type intensity) was found to be 100.

B9: GST-Irga6, Q9QZ85 P197H (protein)
chain: MGQLFSSPKSDENNDLPSSFTGYFKKFNTGRKIISQEILNLIELRMRKGNIQLTNSAISDALKEIDSSVLNVAVTGETGSGKSSFINTLRGIGNEEEGAAKTGVVEVTMERHPYKHPNIPNVVFWDLPGIGSTNFPPNTYLEKMKFYEYDFFIIISATRFKKNDIDIAKAISMMKKEFYFVRTKVDSDITNEADGKHQTFDKEKVLQDIRLNCVNTFRENGIAEPPIFLLSNKNVCHYDFPVLMDKLISDLPIYKRHNFMVSLPNITDSVIEKKRQFLKQRIWLEGFAADLVNIIPSLTFLLDSDLETLKKSMKFYRTVFGVDETSLQRLARDWEIEVDQVEAMIKSPAVFKPTDEETIQERLSRYIQEFCLANGYLLPKNSFLKEIFYLKYYFLDMVTEDAKTLLKEICL
As for B9, the percent of parent (% of wild-type intensity) amounted to 2.8.

B10: GST-Irga6, Q9QZ85 N212R (protein)
chain: MGQLFSSPKSDENNDLPSSFTGYFKKFNTGRKIISQEILNLIELRMRKGNIQLTNSAISDALKEIDSSVLNVAVTGETGSGKSSFINTLRGIGNEEEGAAKTGVVEVTMERHPYKHPNIPNVVFWDLPGIGSTNFPPNTYLEKMKFYEYDFFIIISATRFKKNDIDIAKAISMMKKEFYFVRTKVDSDITNEADGKPQTFDKEKVLQDIRLRCVNTFRENGIAEPPIFLLSNKNVCHYDFPVLMDKLISDLPIYKRHNFMVSLPNITDSVIEKKRQFLKQRIWLEGFAADLVNIIPSLTFLLDSDLETLKKSMKFYRTVFGVDETSLQRLARDWEIEVDQVEAMIKSPAVFKPTDEETIQERLSRYIQEFCLANGYLLPKNSFLKEIFYLKYYFLDMVTEDAKTLLKEICL
With B10, the percent of parent (% of wild-type intensity) is 2.7.

B11: GST-Irga6, Q9QZ85 K162E (protein)
chain: MGQLFSSPKSDENNDLPSSFTGYFKKFNTGRKIISQEILNLIELRMRKGNIQLTNSAISDALKEIDSSVLNVAVTGETGSGKSSFINTLRGIGNEEEGAAKTGVVEVTMERHPYKHPNIPNVVFWDLPGIGSTNFPPNTYLEKMKFYEYDFFIIISATRFKENDIDIAKAISMMKKEFYFVRTKVDSDITNEADGKPQTFDKEKVLQDIRLNCVNTFRENGIAEPPIFLLSNKNVCHYDFPVLMDKLISDLPIYKRHNFMVSLPNITDSVIEKKRQFLKQRIWLEGFAADLVNIIPSLTFLLDSDLETLKKSMKFYRTVFGVDETSLQRLARDWEIEVDQVEAMIKSPAVFKPTDEETIQERLSRYIQEFCLANGYLLPKNSFLKEIFYLKYYFLDMVTEDAKTLLKEICL
Take B11: the percent of parent (% of wild-type intensity) is 3.5.

B12: GST-Irga6, Q9QZ85 I209R (protein)
chain: MGQLFSSPKSDENNDLPSSFTGYFKKFNTGRKIISQEILNLIELRMRKGNIQLTNSAISDALKEIDSSVLNVAVTGETGSGKSSFINTLRGIGNEEEGAAKTGVVEVTMERHPYKHPNIPNVVFWDLPGIGSTNFPPNTYLEKMKFYEYDFFIIISATRFKKNDIDIAKAISMMKKEFYFVRTKVDSDITNEADGKPQTFDKEKVLQDRRLNCVNTFRENGIAEPPIFLLSNKNVCHYDFPVLMDKLISDLPIYKRHNFMVSLPNITDSVIEKKRQFLKQRIWLEGFAADLVNIIPSLTFLLDSDLETLKKSMKFYRTVFGVDETSLQRLARDWEIEVDQVEAMIKSPAVFKPTDEETIQERLSRYIQEFCLANGYLLPKNSFLKEIFYLKYYFLDMVTEDAKTLLKEICL
Consider B12, for which the percent of parent (% of wild-type intensity) was 5.

B13: GST-Irga6, Q9QZ85 E77A (protein)
chain: MGQLFSSPKSDENNDLPSSFTGYFKKFNTGRKIISQEILNLIELRMRKGNIQLTNSAISDALKEIDSSVLNVAVTGATGSGKSSFINTLRGIGNEEEGAAKTGVVEVTMERHPYKHPNIPNVVFWDLPGIGSTNFPPNTYLEKMKFYEYDFFIIISATRFKKNDIDIAKAISMMKKEFYFVRTKVDSDITNEADGKPQTFDKEKVLQDIRLNCVNTFRENGIAEPPIFLLSNKNVCHYDFPVLMDKLISDLPIYKRHNFMVSLPNITDSVIEKKRQFLKQRIWLEGFAADLVNIIPSLTFLLDSDLETLKKSMKFYRTVFGVDETSLQRLARDWEIEVDQVEAMIKSPAVFKPTDEETIQERLSRYIQEFCLANGYLLPKNSFLKEIFYLKYYFLDMVTEDAKTLLKEICL
For B13, the percent of parent (% of wild-type intensity) came out at 34.
